# Test results published in PMC6158717.
# B1: canonical TGACA palindrome 16mer (dsDNA)
# DNA 1: ATTGACAGCTGTCAAT
# DNA 2: ATTGACAGCTGTCAAT
# Legend:
# [1] = molecular target: TGIF1-HD R167A/R168A (Homo sapiens, UniProt Q15583 161-250, R167A;R168A); test: X-ray 3.25 A
# [2] = molecular target: TGIF1-HD (160-250) (Homo sapiens, UniProt Q15583 160-250); test: ITC
# [3] = molecular target: TGIF1-HD (171-250) (Homo sapiens, UniProt Q15583 171-250); test: ITC
# Sequence of TGIF1-HD (171-250) (Q15583 171-250): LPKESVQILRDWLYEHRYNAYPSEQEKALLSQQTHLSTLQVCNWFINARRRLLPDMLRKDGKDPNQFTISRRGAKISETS
# Sequence of TGIF1-HD R167A/R168A (Q15583 161-250 R167A/R168A): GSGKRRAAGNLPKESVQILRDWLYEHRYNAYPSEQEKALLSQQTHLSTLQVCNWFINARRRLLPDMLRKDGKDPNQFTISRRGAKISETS
# Sequence of TGIF1-HD (160-250) (Q15583 160-250): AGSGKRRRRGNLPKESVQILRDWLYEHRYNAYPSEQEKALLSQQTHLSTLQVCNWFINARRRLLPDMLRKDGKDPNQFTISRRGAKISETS
binder,measurement,setting,value
B1,binding result,[1],binds
same,Kd,[2],170 ± 20 nM
same,Kd,[3],728.1 ± 3 nM
